Reference: a protein production outcome set (Wang et al. 2014)

Experiment: label from the status in PepcDB records

Sequence | protein production
MLVCYSVLACEILWDLPCSIMGSPLGHFTWDKYLKETCSVPAPVHCFKQSYTPPSNEFKISMKLEAQDPRNTTSTCIATVVGLTGARLRLRLDGSDNKNDFWRLVDSAEIQPIGNCEKNGGMLQPPLGFRLNASSWPMFLLKTLNGAEMAPIRIFHKEPPSPSHNFFKMGMKLEAVDRKNPHFICPATIGEVRGSEVLVTFDGWRGAFDYWCRFDSRDIFPVGWCSLTGDNLQPPGTKVVIPKNPYPASDVNTEKPSIHSSTKTVLEHQPGQRGRKPGKKRGRTPKTLISHPISAPSKTAEPLKFPKKRGPKPGSKRKPRTLLNPPPASPTTSTPEPDTSTVPQDAATIPSSAMQAPTVCIYLNKNGSTGPHLDKKKVQQLPDHFGPARASVVLQQAVQACIDCAYHQKTVFSFLKQGHGGEVISAVFDREQHTLNLPAVNSITYVLRFLEKLCHNLRSDNLFGNQPFTQTHLSLTAIEYSHSHDRYLPGETFVLGNSLARSLEPHSDSMDSASNPTNLVSTSQRHRPLLSSCGLPPSTASAVRRLCSRGVLKGSNERRDMESFWKLNRSPGSDRYLESRDASRLSGRDPSSWTVEDVMQFVREADPQLGPHADLFRKHEIDGKALLLLRSDMMMKYMGLKLGPALKLSYHIDRLKQGKF | failed
PISRLAQIQQARKEKEPDYILLSERGMPRRREFVMQVKVGNEVATGTGPNKKIAKKNAAEAMLLQLGYKASTSLQD | not failed
MKNNDLTTYGEYLEKLSPKHGREKVFNDFLQIVVCCLSMGRKEELYFKTIKPYDKTELDLFSQAFAALVMQMDRQPLVDPFGDYFQEFLSNAQNGQFFTPFGVCELMNQLITAPKVSDQPKQGDRRVLDPACGSGRLLLSAAQKDRALTFVGIDISYTCCLMTIINLCLNSLNGEVLHMNALTDQYWHRWLIIVDSVTKIPTVYEVEAGIINQPPACADDLKPLPVTGIIQPVKNMIPANFVRYTPKCLEHHHHHH | failed
MATDTTVQLRAGWQGRFYEDFAVGDVYKHPYGRTVTETDNVWFTNLTMNANPMHFNAAYASGTEFDERLVNGLFVIALSVGMSVVDVSANATANLGYDDIQHHAPVFHGDTLFAESEVLSKRESESRPHVGMVTTELRTYTQDGELVLSLERTPMVRKRGAADPLEHHHHHH | failed
MMTLIRITSADDSRLNRLIPLYEESFPESERRKIGQLKRMIENHAPMYFNAIECDGELSGMFVYWDMGDFYYLEHLAVFPEMRNKKIGQQVLDYVAEHLKGVRLLEVEPTEDEMTTRRVNYYRRNGYEVLDKTYVQPSYHA | failed
MDKLRGMETFIAVVECGSFTGAASRLGLSAVMVGKYIAQLESQLATRLLERNTRRQSLTDAGRVYFDEAKRVMEQVSIAESAVERLRLAPAGTLRVSAPTSFGASVIAPLTATFLQAWPAVRVELDLTNRMVDLVDEGVDLAIRIGEIHQEDLVARYLAPYRMVICAAPAYLARYGTPGTPEDLTDHLCLSHTVWTARNEWRLPGVEGEVRWKRDAVLRCNDGYALRQAAIAGAGLLMQPEVLLADALASGSLVRVLEAWTPQPRPVHLLWRQDRRPLPKLTQFIAHLQQGMADALTTTRASE | failed
MPYVDRQNRICGFLDIEDNENSGKFLRRYFILDTQANCLLWYMDNPQNLAVGAGAVGSLQLTYISKVSIATPKQKPKTPFCFVINALSQRYFLQANDQKDLKDWVEALNQASK | not failed
TGEREYIKKLEPMLKELGWWGKAKDENGNEVQLGSPRRLRTILRTNKITAYHAARYAQQMENVDEQPYWRYVAVNDSRTRASHLALHGKIYRADDPIWQTMYPPNDWGCRCRVEALS | failed
MFKITPFSTQQHVIIQITDTHLLEDPQQEFVGINPERSFHCVMQHIRQHHAQIDAIIHTGDLAQTPTPATYARYLDFMQSFGVPFFHVPGNHDHPEFFPFHQASPSELSIVVLGNWHVILMNSAVVGQVDGWINDQQIQQLRDHLAAHPDTPTIVACHHHPFDMHSKWIDQHKLKNTPDLLATFKHYPQIRAVLCGHVHQESLHRWEHIDFLSSPSTSVQFKPRSDEFAFDTLPSGYRILRLNSDGQFDSNIHRIENMLQNINTEISGY | failed
MVVTCPKCGAKNRLGTPPPGQVPVCGACKTPLPWVVEADEKGFAQEVAGAPLTLVDFFAPWCGPCRLVSPILEELARDHAGRLKVVKVNVDEHPGLAARYGVRSVPTLVLFRRGAPVATWVGASPRRVLEERLRPYLEGR | not failed
MLPADGIVCFPGQTWEKVLSKVKKAVVFMDDRCSESLHWNGGAALLFEAGARNIKQFSSFEAGAQNEPKAVFVVSTVLKGRTADIIKDIISLSHFQYCVVFTTVPHSIHLLANNVNADLEGNPVFEQFEEKLCEWMGDMNYTAEVMHAPVVFAPLTEHLHLLPAFSNLFPLLDVDLESINEKRPEKKRFGSLMDMDVHSLPPGLQIQIKTLALTLNGLFEFISTREESFSVGPMSRLIATELANLPQAKNRRKTAPNKASVVFVDRTLDLTGAVGHHGDNLAEKILSVLPQLPGHVTDVQVDMLELTHLKPTTDTKGILAPGCLAQNQSATAKLLWETMLVAKQKEAVIEVRRQLVEAASKENLPIKMSLGRVTAEQLCSYVQLFRDSWGALESHSGVLQLGLAAAQALRHPALQRWDACLAFERLLLQALGDSDLAGVLKQLLPLIKSSESGTGSDLSMDDLLVLLVYVYSVAKEACSGGSEEEKQVEKVEQELIGALTLRLTRETTLSPLVQEVTGVSCPEELTMECAHSVLESMFGTLRGVARARDHLKNFSSVFTPGDGAHQDQHRYILILMIQDQHQ | failed
MNITLGYIDPVAFSLGPIQVRWYGIIIACGILLGYFIAQAALKQVGLHKDTLIDIIFYSAIVGFIVARIYFVTFQWPYYMNHLSEIPKIWHGGIAIHGGLIGGLISGIIVCKIKNLHPFQIGDIVAPSIILAQGIGRWGNFMNHEAHGGPVSRAFLEHLHLPDFIIRNMYIEGQYYHPTFLYESIWDVIGFVILITLRKRLKLGETFFGYLIWYSVGRFFVEAMRTDSLMLTSHIRVAQLVSVVLILISVIFVIYRRVKYQPIKYENSGPLTWPIKKAK | failed
MMIIIRVAIMISVVFYLYFIINLLLINHYREPIQSYEKGPTPYELFLVIPVLNEEHVISRTITQLTESLEQLPPTVHAQIIAVDDDSTDHSLLLLTQSSSRFLQILHRTGNQRAGKGAVLNTAVQYIHKTLALKSDPQRTIVGVLDADAFMNTADLTRVLAHFEQEPQLAMIQTSVNIYNQPNWLTKMQNFEFMGVNNATQQLRNRLGQGIASGNGQFVRLDLALQNPWGNSLLEDLEFTLRTWLLGGTRTAFDHTLVVQQEAVEQLRPFFRQRVRWCQGAVQCMRYLPALWRSGRLNHFQKLDTTFWILMPISGCIVPLTSLITLVVLVSRSLQHWQVGWHHLAIGTLLVIAFSACLVLAALYQRNCAVVKQPVGFLDALKQSLTFQAFLLIISLTPYVAIYRQLRGQTGWAKTHHGVTTRVAKYPDTGLKRSY | failed
MFFGLTLGTAVATGGRDSTLKRAAPQASCMDVHNVTAEAETFTCNAYLATGEQTTLVDAGAMRGVVDVIREHADALDAVVLTHQHGDHVQRLDTVLDAFDAPLYAYGSHPRRDHALADGDTLTVGDEECEVVYTPGHADDHVSLVSESALFSGDVVVHDDGAFDDGSFGRTDRPGQSRERLIESIERILDRMPAGVEHMYSGHGGVFHGDVREVVERALERAERREPKYPDD | failed
MPDATLSNTSLGRLAWLWLTVLIVAVDQVSKYYFENALSLYQQIIVIPDYFSWTLAYNTGAAFSFLADGAGWQRWLFALIAVVVSAVLVVWLKRLGRDDTWLAIALALVLGGALGNLYDRVVLGHVIDFILVHWQNRWYFPAFNVADSAITVGAIMLALDMFKSKKTGETVND | failed
MENFDEVIKEYQKYLEGKEKTHKINSCKHPCCEEDNLKSVKNYFKVYHKKYIPSIIQKKKKERNEHAPPLLKDIQDKRCTNVFERLNDKQFYTGVQKTKFMELLKNNKNKSSYCYNNIKVFSTMLKKPCNYVVTPGTLGIQKYGIQTGRPKTIFLFNNEKKYDKGVYFLVKSYIKNIKSLCYEITKILQPSIGPTRKIYDQNFSLVRNVNDLINGGKYLCTSGDPPAPIRNLSLHFLT | failed
LKRDFIILGNGPRLQNSTYQCKHCDSKLQSTAELTSHLNIHNEEFQKRAKRQERRKQLLSKQKYADGAFADFKQE | not failed
RDRRDSRLRVAASMTIAEYLLPGWLVALRAQLPDTAVSLLAGNSAAVAERLLADDADLGFVEGVSVPTGLDSAVIGHDRLIVVTAPGHPWARRRRPLEAAELAATPLILREKGSGTRQVLDAALGGLARPLIELSSTTAVK | failed
MAILLALIPIMMIFICLFLFKQTSLRSSLIAYVVSVGIVLLSPMFQLGISETVHATIKGSLICFIVGYVLFFGIFLFHLMNKMGYIDQVARFLEEVTHDRLLQMLLMCFGICPLIESVSGFGIGFMVAAPIFLSLGYKPFQAVLLSFIGLLASSWGAMATGTIIGSQLINMPLTTLGTNTALLSIPMFAYFVILSLHVVGGWQAVIEKWKEGIGFFLLFSLGIYLSNAYVSVELAGILSSIVTITFGFLIIKLKGKSEQNLMSEHAAATEREVSIIKIISPYIFLTVCILLSRLVPALHDVFRSYAVLDLKSFSYKLEMLYSPGFWLGMTCLFTIIFFRIPSNIIKQSLSQTIKQWIPFAITTTMFIAISELMGASGMHSLLAKTAGETFGTFFVFVAPFIGGIGGFLTGSNAGSNAMFIKLQMQTAQNVALPWQYVTTLQNTASSVATIACPSRITLGAYLCNIPYRENELLKKTTLMIFGAVLLIVVEVIFWYMLRN | failed
MWSYDKITDYLMNNLGEKRYKHSLGVMDTAVRLAGIYNEDTEKARIAGLVHDCAKKLPGEKIIEICTNEGYELGDEDIRNSYLLHGLAGRILAKKVIGIDDEDVLNAIEFHTTGRPNMSLLEKIIYIADYIEPGREFKGVDELRKAADEDLNKALLMSFDNTIKFVIDKGGFLHHNTIEARNYLISRKG | not failed
MRMGLKADSWIKKMSLEHGMISPFCEKQVGKNVISYGLSSYGYDIRVGSEFMLFDNKNALIDPKNFDPNNATKIDASKEGYFILPANAFALAHTIEYFKMPKDTLAICLGKSTYARCGIIVNVTPFEPEFEGYITIEISNTTNLPAKVYANEGIAQVVFLQGDEMCEQSYKDRGGKYQGQVGITLPKILK | failed
MKNRFAMMLMALLPVLVACQAKDGSADTVQSAVPAPSAPPSSSTATTTPTTPPPESARPVEASRVPSGPKPVAGTDYVVIQDGQQFQPVSGKVEVVEVFGYICPACFQFQPQIALWKAGLASDVNFVYVPAVFGGPWDDYARAFYAAETLNLQEKTHQQLYKAIHVDRTLKGERGRDTVQDIANFYAKFGVNPEQFVNTMSSFGISAKVNRAKQFAKHSQVTGTPSLIINGKYLVKGRTYDDMLRIADHLIEGERKVLGK | failed
MGKLLFVDIGGTLLDYSNEVPRSAVDAIRKARAKGHRVYLSSGRSSAEVTSQLWDIGVDGLIGANGGYVESAQESVFHRRLSGEETRHIVEWLYNRGLEFYLESNNGLYASRGFREASKPVLSRLSEKTDVTVDSMYPDMFWGASLDRDDVNKISYIFNSQEDLDAAREAFPNLEHTTWGGQTGALFGTIGVSVNKKIGVDRLLKYLNADRANTIAFGDSDEDLSLFEASAYGVAMGEATESLKAAADLVTDAVGQDGLRNAFLKLELIDA | failed
MKEIDELTIKEYGVDSRILMERAGISVVLAMEEELGNLSDYRFLVLCGGGNNGGDGFVVARNLLGVVKDVLVVFLGKKKTPDCEYNYGLYKKFGGKVVEQFEPSILNEFDVVVDAIFGTGLRGEITGEYAEIINLVNKSGKVVVSVDVPSGIDSNTGKVLRTAVKADLTVTFGVPKIGHILFPGRDLTGKLKVANIGHPVHLINSINRYVITREMVRSLLPERPRDSHKGTYGKVLIIAGSRLYSGAPVLSGMGSLKVGTGLVKLAVPFPQNLIATSRFPELISVPIDTEKGFFSLQNLQECLELSKDVDVVAIGPGLGNNEHVREFVNEFLKTLEKPAVIDADAINVLDTSVLKERKSPAVLTPHPGEMARLVKKTVGDVKYNYELAEEFAKENDCVLVLKSATTIVTDGEKTLFNITGNTGLSKGGSGDVLTGMIAGFIAQGLSPLEASTVSVYLHGFAAELFEQDERGLTASELLRLIPEAIRRLKE | not failed
